Assay [1] addresses T1, Epl1 (Saccharomyces cerevisiae, UniProt P43572 1-832).
T1 sequence: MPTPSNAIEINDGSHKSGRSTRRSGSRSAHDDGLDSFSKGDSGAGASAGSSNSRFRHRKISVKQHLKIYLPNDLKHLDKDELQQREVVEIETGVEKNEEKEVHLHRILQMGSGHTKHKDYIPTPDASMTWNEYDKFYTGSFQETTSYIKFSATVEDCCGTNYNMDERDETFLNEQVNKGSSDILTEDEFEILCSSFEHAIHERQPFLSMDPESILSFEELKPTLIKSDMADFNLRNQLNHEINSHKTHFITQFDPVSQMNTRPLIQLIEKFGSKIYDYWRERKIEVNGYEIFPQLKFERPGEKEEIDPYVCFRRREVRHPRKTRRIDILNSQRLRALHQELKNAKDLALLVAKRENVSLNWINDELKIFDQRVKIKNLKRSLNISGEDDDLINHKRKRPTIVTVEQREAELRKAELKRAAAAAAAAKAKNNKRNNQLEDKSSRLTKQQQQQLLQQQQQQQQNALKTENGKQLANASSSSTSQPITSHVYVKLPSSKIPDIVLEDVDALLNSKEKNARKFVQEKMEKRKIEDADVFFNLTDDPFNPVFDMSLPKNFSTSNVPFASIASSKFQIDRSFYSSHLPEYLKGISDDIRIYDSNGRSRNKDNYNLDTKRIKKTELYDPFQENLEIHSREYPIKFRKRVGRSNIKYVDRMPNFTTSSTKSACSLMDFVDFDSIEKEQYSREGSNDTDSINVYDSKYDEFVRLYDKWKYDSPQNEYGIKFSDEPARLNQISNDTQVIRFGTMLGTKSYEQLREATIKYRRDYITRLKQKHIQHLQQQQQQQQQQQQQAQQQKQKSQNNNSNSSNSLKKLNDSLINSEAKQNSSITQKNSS
The experiment in a line: cross-linking.

In assay [2] the target is T2, Eaf2 (Saccharomyces cerevisiae, UniProt P53201 1-476).
T2 sequence: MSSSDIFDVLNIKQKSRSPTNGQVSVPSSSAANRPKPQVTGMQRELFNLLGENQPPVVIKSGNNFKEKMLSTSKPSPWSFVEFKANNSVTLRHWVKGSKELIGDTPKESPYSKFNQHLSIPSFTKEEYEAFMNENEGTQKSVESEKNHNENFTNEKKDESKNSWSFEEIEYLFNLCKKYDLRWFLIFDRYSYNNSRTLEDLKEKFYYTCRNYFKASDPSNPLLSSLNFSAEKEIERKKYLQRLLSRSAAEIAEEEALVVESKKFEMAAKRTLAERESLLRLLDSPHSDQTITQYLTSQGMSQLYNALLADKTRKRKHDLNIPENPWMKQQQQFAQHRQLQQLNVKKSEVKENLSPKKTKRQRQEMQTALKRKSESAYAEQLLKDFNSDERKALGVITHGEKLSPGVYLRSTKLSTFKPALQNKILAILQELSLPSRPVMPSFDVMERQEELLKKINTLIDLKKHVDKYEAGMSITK
As to the kind of experiment: cross-linking.

B1: Eaf3 (natural protein)
chain: MVDLEQEFALGGRCLAFHGPLMYEAKILKIWDPSSKMYTSIPNDKPGGSSQATKEIKPQKLGEDESIPEEIINGKCFFIHYQGWKSSWDEWVGYDRIRAYNEENIAMKKRLANEAKEAKKSLLEQQKKKKLSTSLGGPSNGGKRKGDSRSNASISKSTSQSFLTSSVSGRKSGRSSANSLHPGSSLRSSSDQNGNDDRRRSSSLSPNMLHHIAGYPTPKISLQIPIKLKSVLVDDWEYVTKDKKICRLPADVTVEMVLNKYEHEVSQELESPGSQSQLSEYCAGLKLYFDKCLGNMLLYRLERLQYDELLKKSSKDQKPLVPIRIYGAIHLLRLISVLPELISSTTMDLQSCQLLIKQTEDFLVWLLMHVDEYFNDKDPNRSDDALYVNTSSQYEGVALGM
In the case of B1, the binding result in assay [1] was “binds”.

B2: Yaf9 (natural protein)
chain: MAPTISKRIKTLSVSRPIIYGNTAKKMGSVKPPNAPAEHTHLWTIFVRGPQNEDISYFIKKVVFKLHDTYPNPVRSIEAPPFELTETGWGEFDINIKVYFVEEANEKVLNFYHRLRLHPYANPVPNSDNGNEQNTTDHNSKDAEVSSVYFDEIVFNEPNEEFFKILMSRPGNLLPSNKTDDCVYSKQLEQEEIDRIEIGIEKVDKEIDELKQKLENLVKQEAINGS
As for B2, in assay [2], the binding result was “binds”.

These data come from publication doi:10.1101/2022.07.12.499507 (bioRxiv, 2022).
